Target: green fluorescent protein (GFP) [GFP: P42212]
Assay: cell-based or functional assay

Chain of E3-ubiquitin ligase encoded by mRNA Construct G of Table 1 (ER signal-vhhGFP4-cereblon-FLAG-ER retention sequence) (Q96SW2 whole entry): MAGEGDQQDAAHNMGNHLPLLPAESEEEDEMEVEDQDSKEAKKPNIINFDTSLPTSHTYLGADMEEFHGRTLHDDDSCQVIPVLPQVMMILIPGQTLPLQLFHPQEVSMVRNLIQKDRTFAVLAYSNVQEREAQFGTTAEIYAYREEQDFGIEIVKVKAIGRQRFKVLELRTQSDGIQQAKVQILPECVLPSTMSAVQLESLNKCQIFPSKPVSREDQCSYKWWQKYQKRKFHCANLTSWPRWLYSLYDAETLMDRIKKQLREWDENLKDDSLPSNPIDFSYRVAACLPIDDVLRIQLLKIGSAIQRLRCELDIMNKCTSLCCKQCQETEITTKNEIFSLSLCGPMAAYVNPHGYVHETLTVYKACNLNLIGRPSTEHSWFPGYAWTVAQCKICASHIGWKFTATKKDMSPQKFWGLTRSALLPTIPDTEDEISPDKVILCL

decrease in GFP mean fluorescence intensity (MFI), flow cytometry of HeLa cells at 10:1 Construct G:GFP RNA: 46%
Substance: E3-ubiquitin ligase encoded by mRNA Construct G of Table 1 (ER signal-vhhGFP4-cereblon-FLAG-ER retention sequence) (from UniProt Q96SW2 1-442)
